Measured values as given in patent US8697366B2, “Anti-cancer drug screening method using RORα” (Seoul National University Industry Foundation, priority 2009, dated 2014).
“Also recorded” adds a separate entry of the source.

Experiments:
Assay type in all cases: cell-based
[1] = test system: HCT116 colon cancer cells; assay: Transwell cell migration assay; conditions: Wnt5a 100 ng/ml pretreatment 2 hr, compared to non-treated cells
Protocol: HCT116 cells stably expressing RORα, RORαS35A, or RORαS35D were used in Transwell cell migration assays along with control cells. Transwell cell migration assay was conducted as previously described (Kim et al., 2006). Cultured cells were pretreated with Wnt5a (100 ng/ml) for 2 hr, and 2.5×10^4HCT116 cells were loaded onto the top of a 24-well Transwell chamber assay plate (BD Biosciences). Conditioned McCoy's 5A medium containing 15% fetal bovine serum was added to the bottom chamber as a chemoattractant. After 22 hr incubation, the cells that had migrated to the lower chamber of the filter were fixed with 100% methanol, stained with DAPI, and quantified by counting the total number of cells in four different fields. All experimental studies were performed according to the manufacturer's protocols. Values are expressed as means±standard deviations for at least three independent experiments.

[2] = test system: PKCα; assay: Immunoblot against anti-phospho-PKCα antibody after Wnt5a treatment; conditions: anti-phospho-PKCα antibody (active form)
From the text: (§1) (A) Treatment of Wnt5a increased phosphorylated RORα and PKCα but decreased cyclin D1 expression as assessed by immunoblot analysis against each antibody.

[3] = test system: cyclin D1 promoter; assay: ChIP assay on the cyclin D1 promoter in HCT116 cells
Protocol: (A) The specificity of the antibody raised against phosphorylated RORαS35 peptide (SEQ ID NO:18) was assessed by dot blot analysis. (B) Treatment of TPA increased phophorylated RORα on S35 site as assessed by immunoprecipitation with anti-phospho-RORαS35 antibody. […] (D) Treatment of Go6976, a PKCα inhibitor, abolished TPA-dependent phosphorylation of RORα as assessed by immonoblotting with anti-phospho-RORαS35 antibody. (E) HCT116 cells were transfected with Flag-RORα WT, S35D, or S35A, and the cell extracts were immunoprecipitated with anti-Flag antibody followed by immunoblotting against anti-β-catenin antibody. (F) Coimmunoprecipitation assay of β-catenin with either RORαWT or S35A in HCT116 cells after treatment with TPA in the absence or presence of Go6976. (G) ChIP analysis on the cyclin D1 promoter after transfection with Flag-RORαWT, S35A, or S35D in HCT116 cells. (H) ChIP analysis on the cyclin D1 promoter in HCT116 cells after TPA treatment for indicated time. (I) ChIP assay was performed on the cyclin D1 promoter in the absence or presence of siRNA against PKCα with treatment of TPA for 90 min. (J) Real-time quantitative RT-PCR analysis of the cyclin D1 transcript in HCT116 cells in the presence of TPA for indicated time. (K) Knockdown effect of siRNA against RORα or PKCα was assessed in the expression of the cyclin D1 transcript in HCT116 cells.
(B) Cyclin D1 transcript was measured after introducing siRNAs against RORα or PKCα in the presence of Wnt5a in HCT116 cells. (C) Real-time quantitative RTPCR analysis of the cyclin D1 transcript in HCT116 cells after introducing RORα, S35A, or S35D in the presence of Wnt5a. (D) […] on the cyclin D1 promoter with treatment of either TPA or Wnt5a in HCT116 cells. Occupancy of the cyclin D1 promoter by phosphorylated RORα, β-catenin, RNA polymerase II, H3K9me2, H3K4me2, CBP, pCAF, p300, or SMRT was indicated. (E) Transwell cell migration assay for RORα, RORαS35A, or RORαS35D-expressing HCT116 cells with treatment of Wnt5a. Values are represented as mean±s.d. for three independent experiments. (F) The anchorage-independent growth of HCT116 cells expressing RORα, RORαS35A, or RORαS35D in soft agar. Values are expressed as mean±SEM for two experiments in 6 place wells. Colonies were counted in 10 different fields and total colony number/well was calculated. Representative image is shown for each group.
The ChIP, two-step ChIP, and shRNA-coupled ChIP assays were conducted as previously described (Baek et al., 2002; Kim et al., 2005).

[4] = test system: cyclin D1 transcript; assay: Real-time quantitative RT-PCR of the cyclin D1 transcript in HCT116 cells
Protocol: The abundance of mRNA was detected by an ABI prism 7300 system with SYBR Green (molecular probes). Primer pairs were designed to amplify 90-150 bp mRNA specific fragments, and confirmed to be unique products by melting curve analysis. The PCR conditions were 95° C. (5 min) and 40 cycles of 95° C. (30 s), 57° C. (30 s), and 72° C. (30 s).
The quantity of mRNA was calculated using the ΔΔCt method and normalized by using primers to detect β-actin or HPRT. All reactions were performed in triplicates.

[5] = test system: cyclin D1; assay: Immunoblot of cyclin D1 expression in colon cancer cells
From the text: as §1

[6] = test system: RORα; assay: Phosphorylation of RORα in HCT116 cells (immunoprecipitation / immunoblot with anti-phospho-Ser or anti-phospho-RORαS35 antibody); conditions: HCT116 cells, treatment alone
Protocol: (A) Schematic representation of RORα showing the location of the N-terminal domain (NTD), the DNA-binding domain (DBD), the hinge region, the ligand-binding domain (LBD), and the AF-2 domain. […] HEK293 cells were cotransfected with plasmids expressing each His-tagged RORα deletion construct and β-catenin. Whole cell extracts (left panel) and Ni^+-NTA-agarose pulldown materials (right panel) were analyzed by immunoblotting against anti-β-catenin IgG or anti-Xpress IgG. (C) Illustration of the structure of deletion fragments of RORα(SEQ ID NO:17). (D) Interaction of each RORα deletion construct with HisMax-β-catenin was assessed by Ni^+-NTA-agarose pulldown assay. […] The phosphorylated peptide samples were analyzed by LC-MS analysis. […] Immunoprecipitation assay was conducted with anti-Flag antibody, and the phosphorylated RORα was detected by immunoblot analysis with anti-phospho-Ser antibody. […] The reaction samples were subjected to 12% SDSPAGE, and phosphorylated RORα was detected by autoradiography. […] The fluorescence-conjugated secondary antibody was visualized using fluorescence microscopy, and nuclear staining with DAPI was shown.
(A) The specificity of the antibody raised against phosphorylated RORαS35 peptide (SEQ ID NO:18) was assessed by dot blot analysis. (B) Treatment of TPA increased phophorylated RORα on S35 site as assessed by immunoprecipitation with anti-phospho-RORαS35 antibody. […]

B1: Wnt5a: a noncanonical Wnt ligand (protein, UniProt P41221 62-380, looked up)
Protein Wnt-5a: IIGAQPLCSQLAGLSQGQKKLCHLYQDHMQYIGEGAKTGIKECQYQFRHRRWNCSTVDNTSVFGRVMQIGSRETAFTYAVSAAGVVNAMSRACREGELSTCGCSRAARPKDLPRDWLWGGCGDNIDYGYRFAKEFVDARERERIHAKGSYESARILMNLHNNEAGRRTVYNLADVACKCHGVSGSCSLKTCWLQLADFRKVGDALKEKYDSAAAMRLNSRGKLVQVNSRFNSPTTQDLVYIDPSPDYCVRNESTGSLGTQGRLCNKTSEGMDGCELMCCGRGYDQFKTVQTERCHCKFHWCCYVKCKKCTEIVDQFVCK
Which “migration of HCT116 colon cancer cells” value [1] does the source give for B1 here?
The value was “attenuated”.

And the “phosphorylation of PKCα” value [2]?
Its value is “increased phosphorylation”.

And the “RNA polymerase II recruitment on the cyclin D1 promoter” value [3]?
Its value is “decreased”.

And the “methylation of histone H3K9 on the cyclin D1 promoter” value [3]?
Its value is “increased methylation”.

What about the “recruitment of CBP, p300, and pCAF coactivators to the cyclin D1 promoter” value [3] of the same molecule?
The value was “significantly decreased”.

And the “recruitment of phosphorylated RORα on the cyclin D1 promoter” value ([3]; anti-phospho-RORαS35 IgG)?
Its value is “increased the recruitment”.

And the “cyclin D1 transcript” value [4]?
The value was “reduced”.

And the “cyclin D1 expression” value [5]?
The value was “downregulation; also recorded: decreased”.

What about the “phosphorylation of RORα” value [6] of the same molecule?
The value was “increased phosphorylation”.
